Data as given in doi:10.1101/2020.10.14.340026 (bioRxiv, 2020).

Key:
[1] = biological target: T1, EBOV sGP (Mayinga) (Zaire ebolavirus (strain Mayinga-76) …, UniProt P60170); experiment: ELISA; conditions: both partners purified
T1 construct: source: HEK-293F, transiently transfected, purified (Strep-Tactin, SEC S200 increase)

[2] = biological target: Cleaved EBOV GP (GPCL) displayed on Jurkat cells (Zaire ebolavirus, Makona (A0A0E3TM45), UniProt A0A0E3TM45, strain); experiment: flow cytometry on cells; conditions: one partner purified

Row | Binder | binding result [1] | binding result [2]
1 | BDBV-43 mAb (antibody, V domains shown, source: HEK-293F, transiently transfected, purified (mAb Select, SEC)) VH: QVQLVQSGAEVKKPGSSVKVSCRASGDSFSRKYGISWVRQAPGQGFEWMGTIMPIVGLTTSAQKFQGRVTITADKSTSTAHMELNSLTSEDTAIYYCARDEIIGARPHWFDSWGQGTLVTVSS VL: EIVMTQSPAIMSVSPGKRATLSCRASQSVSSNLAWYQRKPGQAPRLLIYGSSTRATGIPARFSGSGSGTEFTLTISSLQSEDFAVYYCLQYYNWPRTFGQGTKVEIK | binds | 
2 | EBOV-548 mAb (antibody, V domains shown) VH: QVQVEESGGGVVQPGGSLRLSCAASGFMFSNYGMHWVRQAPGKGLEWMAFIRYDDSKKFYADSVKGRFTISRDNSKNTLYLQMNSLRAEDTALYYCAKELLQVYTSAWGEGHSYYYALDVWGLGTAVTVSS VL: DIQMTQSPSSVSASVGDRVTITCRASQDISNWLAWYQQKPGKAPELLIYTASILQSGVSSRFSGSGSGTDFTLTISSLQPEDSATYYCQQGKSFPYTFGQGTKLEIK | binds | 
3 | BDBV-289 mAb (antibody, V domains shown, source: HEK-293F, transiently transfected, purified (mAb Select, SEC)) VH: QVQLVQSGAEVKKPGSSVKVSCKASGATFGSDTVTWVRQAPGQGLEWMGGIIPFFGEANYAQRFQGRVTITADKSTNTAYMELSSLRSEDTAVYFCARQINEMATFGEIHYYTYMDVWGQGTLVTVSS VL: GSELTQDPAVSVALGQTVRITCQGDSLRNYYASWYQQKPRQAPVLVFYGKNNRPSGIPDRFSGSSSGNTASLTISGAQAEDEADYYCNSRDSSSNHLVFGGGTKLTVL | binds | 
4 | EBOV-296 mAb (antibody, V domains shown) VH: QVQLVESGPGLVKPSQTLSLICTVSGGSISSGDFYWSWIRQPPGKGLEWIGFFYYSGITYYNPSLKSRVSISRDTSTNQFSLKLRSVTAADTAVYYCARVRGGRITLGQGDMYYYSGMDVWGQGTLVTVSS VL: not shown | binds | 
5 | EBOV-293 mAb (antibody, V domains shown) VH: QVQLVQSGAEVKKPGSSVKVSCKASGGTFIDYTYNWVRQAPGQGLVWMGRVVPGLGLSSYAQQFEDRVTITAAKSTSTVYMELRGLTSEDTAMYYCARDTASFGWLPFAFWGQGTLVTVSS VL: QTVMTQSPGTLSLSPGERATLSCGVSQSISSTYFAWYQQKVGQAPRLLIYGASNRASGIPDRFSGSASGTDFTLTISRVEPEDFAVYYCQQYGSSPTFGQGTRLEIK | binds | 
6 | EBOV-515 mAb, Alexa Fluor 647-labeled (antibody, V domains shown) VH: QVQLQESGPGLVKPSQTLSLTCTVSGGSINSAGYYWTWIRQHPGKGLEWIGYIDYTGRTYYNPSLESRVIISIDTSKNHFSLRLTSVSAADTAVYYCARESSWVSELGRDNWGQGTLVTVSS VL: EIVMTQSPATLPVSPGEGATLSCRASQSVFTNLAWYQQKPGQAPRLLIYDASTRATGIPARFSGSGSGTEFTLTISSLQSEDFAVYYCQQYNNWPRTYGQGTRVEVK |  | binds
7 | EBOV-442 mAb (antibody, V domains shown, IgG1; source: ExpiCHO, transiently transfected, purified (HiTrap MabSelect Sure)) VH: EVQLVESGGGLVKPGGSLRLSCTGSGGTGFTFKYAGMSWVRQAPGKGPEWIGRIKSRIDGGTTDYAAPVKDRFIVSRDDSRNTLYLQMNSLKTEDTAVYYCATGSGKGPSASFGESYYYYDFINVWGKGTTVTVSS VL: ESVLTQSPGTLSLSPGERATLSCRASQSISRKYLAWYQQKPGQAPRLLIYGSSSRATGIPDRFSGSGSGTDFTLTISRLEPEDFAVYYCHQYESSPWTFGQGTKVEIK | binds | binds
8 | EBOV-437 mAb (antibody, V domains shown, IgG1; source: ExpiCHO, transiently transfected, purified (HiTrap MabSelect Sure)) VH: QVQLVQSGAEVKKPGSSVKVSCKASGGTFSRDIFSWVRQAPGQGLEWMGGIIPIFGTANYAQKFQGRVTITADKSTSTVFMELSGLRSEDTAVYFCARGPPLRGERSWFGESEKYDYFYMDVWGKGTTVTVSS VL: QIVLTQSPGTLSLSPGERATLSCRASQSVSNSYLAWYQQKPGQAPRLLIYGASSRATGIPDRFSGSGSGTDFTLSISRLEPEDFAVYYCQQYGTSPCTFGQGTKLEIK | binds | 
9 | BDBV-329 mAb (antibody, V domains shown, IgG1; source: ExpiCHO, transiently transfected, purified (HiTrap MabSelect Sure)) VH: QVQLVQSGAEVKKPGSSVKVSCKASGGTFDTYAISWVRQAPGQGLEWMGGIIPVLGIVDYAQKFQGRVTITAAKFTNIAYMELSSLRSEDAAVYYCARGLRSLSPRGQEGPTPAPGWRRAQYHYYYMDVWGTGTLVTVSS VL: EIVMTQSPGTLSLSPGERATLSCRASQSVSSNYLAWYQQKPGQAPRLLIYGASSRATGIPDRFSGSGSGPDFTLTISRLEPEDFAVYYCQQYGSSPGTFGGGTKVEIK | binds | 
10 | EBOV-237 mAb (antibody, V domains shown, IgG1; source: ExpiCHO, transiently transfected, purified (HiTrap MabSelect Sure)) VH: QVQLQESGPGLVKPSGTLSLTCAVSGGSISNGIWWSWVRQPPGKGLEWIGEIYHSGSTNYSPSLKSRVTISLDKSKNQFSLKLNSVTAADTAVYYCARAPSQFDFSDWLVPQGAMFRGHYIDYWGQGTLVTVSS VL: not shown | binds | 
